This note sets out measurements from publication PMC12098916, “Modelling POLG mutations in mice unravels a critical role of POLγΒ in regulating phenotypic severity”.

The target in data set [1] is mouse DNA polymerase γ catalytic subunit, wild type (mPolγA^WT) (mouse) (UniProt P54099). The experiment in a line: thermal shift assay (thermofluor, SYPRO Orange); 0.5 µM PolγA with or without 0.75 µM PolγB (1:1.5), mixed on ice for 5 min; 20 mM Tris pH 8, 1 mM DTT, final NaCl 175 ± 50 mM; 4 to 95 °C in steps of 0.5 °C. (In general: In DSF a fluorescence change marks the thermal transition of the protein.)
Sequence of mouse DNA polymerase γ catalytic subunit, wild type (mPolγA^WT) (mouse) (P54099 whole entry): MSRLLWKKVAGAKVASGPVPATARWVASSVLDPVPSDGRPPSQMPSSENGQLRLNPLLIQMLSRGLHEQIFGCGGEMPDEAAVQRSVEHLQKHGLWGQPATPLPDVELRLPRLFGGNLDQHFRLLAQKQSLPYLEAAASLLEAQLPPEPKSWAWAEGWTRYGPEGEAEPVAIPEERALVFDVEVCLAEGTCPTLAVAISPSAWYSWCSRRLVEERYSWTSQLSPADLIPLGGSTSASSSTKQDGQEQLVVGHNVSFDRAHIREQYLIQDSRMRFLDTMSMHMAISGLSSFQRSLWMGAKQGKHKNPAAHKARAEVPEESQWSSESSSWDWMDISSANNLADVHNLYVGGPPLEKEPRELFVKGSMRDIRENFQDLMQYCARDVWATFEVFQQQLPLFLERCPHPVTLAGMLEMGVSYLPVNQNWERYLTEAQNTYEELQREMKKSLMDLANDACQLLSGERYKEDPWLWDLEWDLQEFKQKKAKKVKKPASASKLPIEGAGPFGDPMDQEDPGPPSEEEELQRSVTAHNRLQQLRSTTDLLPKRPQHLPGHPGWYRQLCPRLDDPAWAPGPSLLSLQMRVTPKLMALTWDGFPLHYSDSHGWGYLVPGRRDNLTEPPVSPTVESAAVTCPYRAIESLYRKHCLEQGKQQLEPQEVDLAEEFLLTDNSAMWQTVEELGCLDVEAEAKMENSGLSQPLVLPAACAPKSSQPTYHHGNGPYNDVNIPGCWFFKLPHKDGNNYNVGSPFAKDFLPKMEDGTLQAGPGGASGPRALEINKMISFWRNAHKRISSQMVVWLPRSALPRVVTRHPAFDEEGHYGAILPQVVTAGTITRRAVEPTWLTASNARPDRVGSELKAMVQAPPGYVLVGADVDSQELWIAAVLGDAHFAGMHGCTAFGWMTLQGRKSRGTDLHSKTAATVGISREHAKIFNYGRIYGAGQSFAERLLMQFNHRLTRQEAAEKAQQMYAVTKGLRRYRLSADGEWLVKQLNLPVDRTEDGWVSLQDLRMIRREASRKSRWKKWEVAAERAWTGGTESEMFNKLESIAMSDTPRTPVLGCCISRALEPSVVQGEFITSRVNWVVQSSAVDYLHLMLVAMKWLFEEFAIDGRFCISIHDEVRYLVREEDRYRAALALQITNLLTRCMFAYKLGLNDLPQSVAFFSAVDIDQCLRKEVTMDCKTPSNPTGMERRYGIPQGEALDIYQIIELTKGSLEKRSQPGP

The target of data set [2] is mouse DNA polymerase γ catalytic subunit, Y933C variant (mPolγA^Y933C) (mouse) (UniProt P54099). The data set is described as above.
Sequence of mouse DNA polymerase γ catalytic subunit, Y933C variant (mPolγA^Y933C) (mouse) (P54099 whole entry Y934C): as the sequence (P54099 whole entry) above, with Y934C counted along it
Data set [3] has as its target human POLγA (hPOLγA WT);human POLγB (hPOLγB) (Homo sapiens;Homo sapiens, UniProt P54098;Q9UHN1 26-1239;26-485, |). The experiment in a line: EMSA; 10 uM ddCTP; value in Supp Fig 13f not in material; EMSA: 25 mM Tris-HCl pH 8.0, ~30 mM NaCl, 1 mM TCEP, 0.1 mg/ml BSA, 10% glycerol, 10 uM ddCTP, 0.5 nM DNA, 6.6 nM POLγB dimer, ice 10 min then room temperature. The note with it: protein: recombinant;recombinant; tags: 6xHis;6xHis; copies: 1;2; label: 32P 5' on 21-mer; 21 bp, 15 nt 5' overhang on strand 1.

Data set [4] concerns the target T1, mouse PolγA (mPolγA WT);mouse PolγB (mPolγB) (Mus musculus;Mus musculus, UniProt P54099;Q9QZM2 26-1218;1-459, |). The experiment in a line: EMSA; 10 uM ddCTP; value in Supp Fig 13f not in material; marginally weaker than human; EMSA: 25 mM Tris-HCl pH 8.0, ~30 mM NaCl, 1 mM TCEP, 0.1 mg/ml BSA, 10% glycerol, 10 uM ddCTP, 0.5 nM DNA, 6.6 nM POLγB dimer, ice 10 min then room temperature. The conditions noted are these: protein: recombinant;recombinant; tags: 6xHis;6xHis; copies: 1;2; label: 32P 5' on 21-mer; 21 bp, 15 nt 5' overhang on strand 1.

Data set [5] has as its target T1, mouse PolγA (mPolγA WT);mouse PolγB …. The experiment in a line: cryo-EM; R (replication) conformer; 10 mM Ca2+, 0.2 mM dCTP; EMSA: 25 mM Tris-HCl pH 8.0, ~30 mM NaCl, 1 mM TCEP, 0.1 mg/ml BSA, 10% glycerol, 10 uM ddCTP, 0.5 nM DNA, 6.6 nM POLγB dimer, ice 10 min then room temperature. The note with it: protein: recombinant;recombinant; tags: 6xHis;6xHis; copies: 1;2; 15 nt 5' overhang on strand 1; single mismatch at primer 3' end. (In general: Mobility shift assays separate free from complexed probe on a gel.)

In data set [6] the target is mouse PolγA (mPolγA WT);human POLγB (hPOLγB) (Mus musculus;Homo sapiens, UniProt P54099;Q9UHN1 26-1218;26-485, |). The experiment in a line: cryo-EM; chimera mAhB, human-like E conformer; 10 mM Ca2+, 0.2 mM dCTP; EMSA: 25 mM Tris-HCl pH 8.0, ~30 mM NaCl, 1 mM TCEP, 0.1 mg/ml BSA, 10% glycerol, 10 uM ddCTP, 0.5 nM DNA, 6.6 nM POLγB dimer, ice 10 min then room temperature. The note with it: protein: recombinant;recombinant; tags: 6xHis;6xHis; copies: 1;2; 15 nt 5' overhang on strand 1; single mismatch at primer 3' end.
Sequence of mouse PolγA (mPolγA WT);human POLγB (hPOLγB) (P54099 26-1218, chain 1 of 2): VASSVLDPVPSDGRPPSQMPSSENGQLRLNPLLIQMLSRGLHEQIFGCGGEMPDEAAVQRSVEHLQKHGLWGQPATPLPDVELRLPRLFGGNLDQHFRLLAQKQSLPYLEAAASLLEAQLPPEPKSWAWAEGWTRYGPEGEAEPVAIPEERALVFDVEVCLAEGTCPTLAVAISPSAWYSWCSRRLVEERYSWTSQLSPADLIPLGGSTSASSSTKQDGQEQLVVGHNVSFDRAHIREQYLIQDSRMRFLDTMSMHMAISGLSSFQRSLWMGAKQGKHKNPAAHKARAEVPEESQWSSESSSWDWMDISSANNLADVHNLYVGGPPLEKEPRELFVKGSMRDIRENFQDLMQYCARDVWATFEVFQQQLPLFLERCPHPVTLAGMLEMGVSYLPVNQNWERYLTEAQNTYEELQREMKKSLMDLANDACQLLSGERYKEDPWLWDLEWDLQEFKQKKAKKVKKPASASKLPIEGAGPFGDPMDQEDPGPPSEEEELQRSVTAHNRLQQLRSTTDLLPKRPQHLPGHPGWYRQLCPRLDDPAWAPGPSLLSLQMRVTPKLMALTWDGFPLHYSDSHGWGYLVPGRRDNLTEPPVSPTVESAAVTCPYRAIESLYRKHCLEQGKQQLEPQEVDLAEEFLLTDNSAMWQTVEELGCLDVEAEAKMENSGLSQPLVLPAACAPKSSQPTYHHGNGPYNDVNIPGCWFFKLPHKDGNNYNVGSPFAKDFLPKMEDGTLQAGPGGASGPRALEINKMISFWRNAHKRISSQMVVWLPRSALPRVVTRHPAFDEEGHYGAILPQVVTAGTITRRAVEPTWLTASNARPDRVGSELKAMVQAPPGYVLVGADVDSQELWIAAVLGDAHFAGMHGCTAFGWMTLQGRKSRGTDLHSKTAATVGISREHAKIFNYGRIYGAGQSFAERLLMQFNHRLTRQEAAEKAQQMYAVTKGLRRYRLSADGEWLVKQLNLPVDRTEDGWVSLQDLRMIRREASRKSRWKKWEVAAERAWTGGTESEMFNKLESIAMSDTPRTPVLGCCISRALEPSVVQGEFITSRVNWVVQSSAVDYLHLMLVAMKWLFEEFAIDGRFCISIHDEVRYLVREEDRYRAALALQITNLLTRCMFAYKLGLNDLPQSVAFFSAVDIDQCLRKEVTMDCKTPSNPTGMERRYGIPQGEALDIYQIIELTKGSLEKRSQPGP
Sequence of mouse PolγA (mPolγA WT);human POLγB (hPOLγB) (Q9UHN1 26-485, chain 2 of 2): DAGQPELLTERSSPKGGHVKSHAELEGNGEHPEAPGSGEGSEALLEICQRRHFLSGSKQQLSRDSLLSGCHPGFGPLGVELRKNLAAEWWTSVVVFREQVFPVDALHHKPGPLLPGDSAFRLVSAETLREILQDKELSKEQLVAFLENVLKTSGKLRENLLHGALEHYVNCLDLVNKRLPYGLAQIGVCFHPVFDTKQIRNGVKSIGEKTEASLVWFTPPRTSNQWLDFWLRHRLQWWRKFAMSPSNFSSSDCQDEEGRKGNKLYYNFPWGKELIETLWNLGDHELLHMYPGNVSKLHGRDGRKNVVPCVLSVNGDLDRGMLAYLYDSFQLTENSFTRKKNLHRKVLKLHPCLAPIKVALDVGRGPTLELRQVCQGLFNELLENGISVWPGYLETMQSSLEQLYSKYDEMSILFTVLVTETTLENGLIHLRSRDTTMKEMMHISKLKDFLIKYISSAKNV

T1 sequence (P54099 26-1218, chain 1 of 2): as the sequence (P54099 26-1218, chain 1 of 2) above
T1 sequence (Q9QZM2 whole entry, chain 2 of 2): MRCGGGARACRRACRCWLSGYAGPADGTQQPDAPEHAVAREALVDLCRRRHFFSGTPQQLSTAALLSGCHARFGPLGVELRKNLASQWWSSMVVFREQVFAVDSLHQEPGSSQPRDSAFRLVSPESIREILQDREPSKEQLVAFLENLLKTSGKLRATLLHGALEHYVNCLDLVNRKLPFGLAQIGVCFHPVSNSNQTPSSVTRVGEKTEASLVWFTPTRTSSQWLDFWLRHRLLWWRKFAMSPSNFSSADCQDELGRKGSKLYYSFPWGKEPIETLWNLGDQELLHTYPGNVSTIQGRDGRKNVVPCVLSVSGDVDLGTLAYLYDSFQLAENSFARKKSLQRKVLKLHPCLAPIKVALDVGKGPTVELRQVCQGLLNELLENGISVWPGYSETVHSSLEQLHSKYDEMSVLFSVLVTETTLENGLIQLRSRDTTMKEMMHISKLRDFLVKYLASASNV
Sequence of human POLγA (hPOLγA WT);human POLγB (hPOLγB) (P54098 26-1239, chain 1 of 2): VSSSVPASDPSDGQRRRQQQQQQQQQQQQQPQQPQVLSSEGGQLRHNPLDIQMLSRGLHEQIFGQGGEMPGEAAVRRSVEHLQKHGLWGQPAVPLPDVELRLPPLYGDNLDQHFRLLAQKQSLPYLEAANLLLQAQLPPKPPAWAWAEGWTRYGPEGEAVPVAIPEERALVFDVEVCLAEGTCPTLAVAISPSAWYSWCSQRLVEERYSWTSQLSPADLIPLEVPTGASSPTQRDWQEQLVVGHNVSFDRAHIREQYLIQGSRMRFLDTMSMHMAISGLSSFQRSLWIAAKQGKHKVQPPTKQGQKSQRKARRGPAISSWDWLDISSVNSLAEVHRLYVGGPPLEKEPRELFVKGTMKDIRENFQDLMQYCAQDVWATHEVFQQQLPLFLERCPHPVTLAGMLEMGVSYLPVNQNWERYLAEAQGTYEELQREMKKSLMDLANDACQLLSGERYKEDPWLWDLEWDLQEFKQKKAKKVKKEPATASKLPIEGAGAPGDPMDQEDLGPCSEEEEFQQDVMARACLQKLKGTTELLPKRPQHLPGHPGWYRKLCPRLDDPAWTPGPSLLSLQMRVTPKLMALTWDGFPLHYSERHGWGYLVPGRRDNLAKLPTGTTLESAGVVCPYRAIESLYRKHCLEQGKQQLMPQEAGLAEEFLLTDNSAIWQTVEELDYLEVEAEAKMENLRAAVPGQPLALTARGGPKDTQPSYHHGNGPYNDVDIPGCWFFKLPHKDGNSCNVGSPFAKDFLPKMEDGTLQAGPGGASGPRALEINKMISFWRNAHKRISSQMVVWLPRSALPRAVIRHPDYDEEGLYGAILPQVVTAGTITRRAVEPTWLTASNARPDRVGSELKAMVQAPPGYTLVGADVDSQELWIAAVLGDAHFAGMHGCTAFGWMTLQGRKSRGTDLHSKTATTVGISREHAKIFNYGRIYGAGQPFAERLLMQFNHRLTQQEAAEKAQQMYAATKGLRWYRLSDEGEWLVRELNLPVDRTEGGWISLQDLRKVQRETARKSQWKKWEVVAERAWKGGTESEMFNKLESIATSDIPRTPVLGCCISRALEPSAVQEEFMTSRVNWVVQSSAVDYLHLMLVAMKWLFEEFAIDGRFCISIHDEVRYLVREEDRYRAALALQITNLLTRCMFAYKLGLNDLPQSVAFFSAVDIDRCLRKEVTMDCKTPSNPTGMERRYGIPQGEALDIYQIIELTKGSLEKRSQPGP
Sequence of human POLγA (hPOLγA WT);human POLγB (hPOLγB) (Q9UHN1 26-485, chain 2 of 2): as the sequence (Q9UHN1 26-485, chain 2 of 2) above

As to “mouse DNA polymerase γ accessory subunit, wild type (mPolγB^WT)”, the increase in Tm of PolγA in complex with PolγB in data set [1] is 9 °C.

On to “mouse DNA polymerase γ accessory subunit, wild type (mPolγB^WT) (natural protein)”, for which the increase in Tm of PolγA in complex with PolγB in data set [2] amounted to 9 °C.

B1: EMSA primer-template 36/21 (dsDNA)
DNA 1: TTTTTTTTTTATCCGGGCTCCTCTAGACTCGACCGC
DNA 2: GCGGTCGAGTCTAGAGGAGCC
Take B1: the binding result in data set [3] and in data set [4] was “binds” each time.

B2: cryo-EM primer-template 40/25 with 3' mismatch (dsDNA)
DNA 1: TTTTTTTTTTATCCGGGCTCCTCTAGACTCGACCGCATGC
DNA 2: GCATGCGGTCGAGTCTAGAGGAGCT
For the molecule B2, the binding result in data set [5] and in data set [6] was “binds” each time.
